Reference: article PMC4613500 (2015)

Experiments:
SPR = molecular target: the molecule itself; assay: SPR
[1] = molecular target: the molecule itself; assay: sedimentation velocity analytical ultracentrifugation

B1: Chordin ∆C ∆C (C-terminally tolloid-cleaved fragment, lacking vWC4) (protein)
chain: AGPEPPVLPIRSEKEPLPVRGAAGCTFGGKVYALDETWHPDLGEPFGVMRCVLCACEAPQWGRRTRGPGRVSCKNIKPECPTPACGQPRQLPGHCCQTCPQERSSSERQPSGLSFEYPRDPEHRSYSDRGEPGAEERARGDGHTDFVALLTGPRSQAVARARVSLLRSSLRFSISYRRLDRPTRIRFSDSNGSVLFEHPAAPTQDGLVCGVWRAVPRLSLRLLRAEQLHVALVTLTHPSGEVWGPLIRHRALAAETFSAILTLEGPPQQGVGGITLLTLSDTEDSLHFLLLFRGLLEPRSGGLTQVPLRLQILHQGQLLRELQANVSAQEPGFAEVLPNLTVQEMDWLVLGELQMALEWAGRPGLRISGHIAARKSCDVLQSVLCGADALIPVQTGAAGSASLTLLGNGSLIYQVQVVGTSSEVVAMTLETKPQRRDQRTVLCHMAGLQPGGHTAVGICPGLGARGAHMLLQNELFLNVGTKDFPDGELRGHVAALPYCGHSARHDTLPVPLAGALVLPPVKSQAAGHAWLSLDTHCHLHYEVLLAGLGGSEQGTVTAHLLGPPGTPGPRRLLKGFYGSEAQGVVKDLEPELLRHLAKGMASLMITTKGSPRGELRGQVHIANQCEVGGLRLEAAGAEGVRALGAPDTASAAPPVVPGLPALAPAKPGGPGRPRDPNTCFFEGQQRPHGARWAPNYDPLCSLCTCQRRTVICDPVVCPPPSCPHPVQAPDQCCPVCPEKQDVRDLPGLPRSRDPGEGCYFDGDRSWRAAGTRWHPVVPPFGLIKCAVCTCKGGTGEVHCEKVQCPRLACAQPVRVNPTDCCKQCPVGSGA
B1 showed a Kd (SPR) of 3.15 nM.

B2: Chordin (protein)
chain: AGPEPPVLPIRSEKEPLPVRGAAGCTFGGKVYALDETWHPDLGEPFGVMRCVLCACEAPQWGRRTRGPGRVSCKNIKPECPTPACGQPRQLPGHCCQTCPQERSSSERQPSGLSFEYPRDPEHRSYSDRGEPGAEERARGDGHTDFVALLTGPRSQAVARARVSLLRSSLRFSISYRRLDRPTRIRFSDSNGSVLFEHPAAPTQDGLVCGVWRAVPRLSLRLLRAEQLHVALVTLTHPSGEVWGPLIRHRALAAETFSAILTLEGPPQQGVGGITLLTLSDTEDSLHFLLLFRGLLEPRSGGLTQVPLRLQILHQGQLLRELQANVSAQEPGFAEVLPNLTVQEMDWLVLGELQMALEWAGRPGLRISGHIAARKSCDVLQSVLCGADALIPVQTGAAGSASLTLLGNGSLIYQVQVVGTSSEVVAMTLETKPQRRDQRTVLCHMAGLQPGGHTAVGICPGLGARGAHMLLQNELFLNVGTKDFPDGELRGHVAALPYCGHSARHDTLPVPLAGALVLPPVKSQAAGHAWLSLDTHCHLHYEVLLAGLGGSEQGTVTAHLLGPPGTPGPRRLLKGFYGSEAQGVVKDLEPELLRHLAKGMASLMITTKGSPRGELRGQVHIANQCEVGGLRLEAAGAEGVRALGAPDTASAAPPVVPGLPALAPAKPGGPGRPRDPNTCFFEGQQRPHGARWAPNYDPLCSLCTCQRRTVICDPVVCPPPSCPHPVQAPDQCCPVCPEKQDVRDLPGLPRSRDPGEGCYFDGDRSWRAAGTRWHPVVPPFGLIKCAVCTCKGGTGEVHCEKVQCPRLACAQPVRVNPTDCCKQCPVGSGAHPQLGDPMQADGPRGCRFAGQWFPESQSWHPSVPPFGEMSCITCRCGAGVPHCERDDCSLPLSCGSGKESRCCSRCTAHRRPAPETRTDPELEKEAEGS
In the case of B2, the Kd (SPR) is reported as 3.05 nM and the Kd [1] is reported as 3300 nM.
